Patent publication US11467166B2, “Compositions and methods for detecting molecule-molecule interactions” (ShanghaiTech University, priority 2017, dated 2022)
pKd: −log10 of the molar value.

How the values were obtained:
[1] = target: T1, His-MATH (Homo sapiens, UniProt O43791); experiment: Peptide competition assay in the in vitro Pup modification of MATH by PUP-IT^pep1; assay type: biochemical; details: free peptide added at 1-512 μM; 0.2 μM His-MATH, 8 μM Pup(E); anti-His immunoblot
T1 construct: made in house; host or cells: E. coli BL21(DE3)
T1 sequence (O43791 31-161 limits assumed): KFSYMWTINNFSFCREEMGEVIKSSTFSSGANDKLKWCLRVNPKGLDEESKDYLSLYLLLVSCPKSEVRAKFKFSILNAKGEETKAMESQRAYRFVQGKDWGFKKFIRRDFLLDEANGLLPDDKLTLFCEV
Protocol: Pup modification were assayed at 37° C. for 30 min with purified recombinant proteins in a 20 μl reaction volume with 20 mM Tris 8.0, 100 mM NaCl, 10 mM ATP, and 15 mM MgCl2. The reaction also contains purified 1 μM PUP-IT, 10 μM Pup(E) or 10 mM bio-DE28. All the reactions were stopped by direct addition of 6×SDS loading buffer and analyzed on 4-20% SDS-PAGE gels (Genescript, cat. #M42015C).
Peptide competition assay (as in FIG. 2d) was performed in the presence of different peptides. Free pep1 (sequence […], SEQ ID NO: 12) and control peptide (sequence […], SEQ ID NO: 15) were synthesized and purified to >98% pure, confirmed by mass spectrometry. The peptides were dissolved in water and pH adjusted with Tris buffer to 7, stored as 2 mM stock in −80° C. The reactions were set up with 1 μM pup^SBC1, 0.2 μM His-MATH, and 8 μM Pup(E). Different amount of free pep1 or control peptide was added to each reaction to make the final peptide concentration at 1, 2, 4, 8, 16, 32, 64, 128, 256, and 512 μM. All the reactions were stopped by direct addition of 6×SDS loading buffer and analyzed on 4-20% SDS-PAGE gels, followed by immune-blotting with anti-His antibody to identify both unmodified and modified MATH. The density of modified MATH was quantified with ImageJ and then plotted with GraphPad Prism 6.

[2] = target: CD86/CD80; details: CD28 interaction with CD86/CD80; reported; cited from earlier work
[3] = target: MATH domain from human SPOP (Homo sapiens, UniProt O43791); details: peptide binding to MATH domain from human SPOP; known values; read-out: dissociation constant (Kd); cited from earlier work
MATH domain from human SPOP, sequence (O43791 31-161 limits assumed): as above

Substance | inhibition of MATH modification [1] | pKd [2] | pKd [3]
pep1(mut): mutated pep1 peptide LACDEDTAAASSSTA (SEQ ID NO: 15), known to have defect on MATH binding | could not be fully inhibited | – | –
CD28: co-stimulating receptor normally expressed on the surface of T cells | – | 5.40 | –
SPOP substrate-derived MATH-binding peptide SELDSPSSTSSSSGI (SEQ ID NO: 14), the weakest binder [pep3] | – | – | < 3.60
SPOP substrate-derived MATH-binding peptide LACDEVTSTTSSSTA (SEQ ID NO: 12) [pep1] | dose-dependent inhibition of MATH modification | – | 5.43
SPOP substrate-derived MATH-binding peptide TLFPDVSSSTHPYHG (SEQ ID NO: 13) [pep2] | – | – | 4.12
